One may read the pKi as −log10 of the Ki, conventionally taken in molar units. A low value points to a large Ki.

Assay [1] addresses human CXCR4 (human). Kind of assay: periplasmic fraction (1:10), displacement of [125I]-CXCL12, HEK293T-CXCR4 membranes; - = 0-29%, + = 30-69%, ++ = 70-100%. In general terms: Displacement assays read how much labelled ligand stays bound in the presence of the test substance.
For assay [2], the target named is human CXCR4 (human). Kind of assay: competition with [125I]-CXCL12 on HEK293T-CXCR4 membranes.
Assay [3] deals with human CXCR4 (human). Kind of assay: competition vs [125I]-238D2 (3 nM), membranes of HEK293T cells expressing CXCR4.
The target in assay [4] is human CXCR4 (human).
The target of assay [5] is human CXCR4 (human). As to the kind of experiment: competition with [125I]-238D4 on HEK293T-CXCR4 membranes.
Assay [6] deals with human CXCR4 (human). As to the kind of experiment: competition vs [125I]-238D4 (3 nM), membranes of HEK293T cells expressing CXCR4.
Assay [7] addresses human CXCR4 (human). As to the kind of experiment: competition with [125I]-238D2 on HEK293T-CXCR4 membranes.
Assay [8] concerns the target human CXCR4 (human). As to the kind of experiment: competition vs [125I]-CXCL12 (40 pM), membranes of HEK293T cells expressing CXCR4.
Assay [9] addresses human CXCR4 (human). As to the kind of experiment: cell-based or functional assay.

Nanobody 238D2 (VHH), sequence (VHH): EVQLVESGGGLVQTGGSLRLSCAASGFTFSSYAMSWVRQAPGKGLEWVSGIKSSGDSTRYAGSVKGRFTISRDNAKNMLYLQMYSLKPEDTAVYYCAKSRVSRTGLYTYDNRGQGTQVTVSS

With Nanobody 238D2 (VHH), the percent inhibition of specific [125I]-CXCL12 binding in the assay with human CXCR4 (human) [1] lay in the range of 70 to 100%. In the assay with human CXCR4 (human) [2], this substance displayed an IC50 (read off the curve) of 20 nM. In the assay with human CXCR4 (human) [3], the Displacem. (%) came to 97% and the pKi stood at 8.41. The IC50 (read off the curve), migration of Jurkat cells towards 0.3 nM CXCL12 with human CXCR4 (human) [4] was 8 nM. The substance also showed an IC50 (read off the curve) with human CXCR4 (human) [5] of 4 nM. In the assay with human CXCR4 (human) [6], this substance had a pKi of 8.23. Besides, the IC50 (read off the curve) in the assay with human CXCR4 (human) [7] turned out to be 6 nM. Besides, in the assay with human CXCR4 (human) [8], the Displacem. (%) came to 93% and the pKi came out at 8.01. Further, in the assay with human CXCR4 (human) [9], the Anti-HIV-1 activity (in nM), MT-4/HE turned out to be 26.7 nM; the Anti-HIV-1 activity (in nM), MT-4/NL4.3 is 30.7 nM; the Anti-HIV-1 activity (in nM), PBMC/HE came to 44.7 nM; the Anti-HIV-1 activity (in nM), PBMC/NL4.3 is 30.9 nM. Also, in the assay with human CXCR4 (human) [9], the Anti-HIV-1 activity (in nM), U87.CD4.CXCR4/NL4.3 came out at 44.7 nM; the CRE activation, HEK293T-CXCR4-CREbgal/0.01-100 nM CXCL12, Imax (%) was 104%; the Chemotaxis, Jurkat/0.3 nM CXCL12, Imax (%) was found to be 106%; the IC50, HIV-1 NL4.3, MT-4 cells, exp. 1 worked out at 0.701 µg/mL. In the assay with human CXCR4 (human) [9], this substance showed an IC50, HIV-1 NL4.3, PBMC donor 1 of 0.468 µg/mL; an IC50, HIV-1 NL4.3, PBMC donor 2 of 0.307 µg/mL; an IC50, HIV-1 UG270, PBMC donor 1 of 0.492 µg/mL; an IC50, HIV-1 UG270, PBMC donor 2 of 0.447 µg/mL. In the assay with human CXCR4 (human) [9], this substance came in with an IC90, HIV-1 NL4.3, MT-4 cells, exp. 1 of 0.849 µg/mL; an IC90, HIV-1 NL4.3, PBMC donor 1 of more than 1 µg/mL; an IC90, HIV-1 NL4.3, PBMC donor 2 of more than 1 µg/mL; an IC90, HIV-1 UG270, PBMC donor 1 of more than 1 µg/mL. In the assay with human CXCR4 (human) [9], this substance showed an IC90, HIV-1 UG270, PBMC donor 2 of 0.851 µg/mL; an IP accumulation, HEK293T-CXCR4-Gαqi5/30 nM CXCL12, Imax (%) of 86%; a nM IC50, HIV-1 NL4.3, PBMC donor 1 of 31.2 nM; a nM IC50, HIV-1 NL4.3, PBMC donor 2 of 20.5 nM. In the assay with human CXCR4 (human) [9], this substance returned a nM IC50, HIV-1 UG270, PBMC donor 1 of 32.8 nM and a nM IC50, HIV-1 UG270, PBMC donor 2 of 29.8 nM.
With monoclonal antibody 12G5, the Displacem. (%) turned out to be 89% in the assay with human CXCR4 (human) [3], 90% in the assay with human CXCR4 (human) [6] and 54% in the assay with human CXCR4 (human) [8]. Moreover, the figures for the pKi with human CXCR4 (human) [3], with human CXCR4 (human) [6] and with human CXCR4 (human) [8] were 9.65, 9.31 and 9.19, respectively.
